Test results: the supplement of paper PMC7877785
± gives the uncertainty stated by the source.

Test: self-splicing fitness, log relative to wild type (ln ratio); higher = more splicing; Tetrahymena group I intron in knt gene, E. coli kanamycin selection, DiMSum; sequences stand for … in CUCUCU…GGAGGGAAAAGUUAUCAGGCAUGCACCUGGUAGCUAGUCUUUAAACCAAUAGAUUGCAUCGGUUUAAAAGGCAAGACCGUCAAAUUGCGGGAAAGGGGUCAACAGCCGUUCAGUACCAAGUCUCAGGGGAAACUUUGAGAUGGCCUUGCAAAGGGUAUGGUAAUAAGCUGACGGACAUGGUCCUAACCACGCAGCCAAGUCCUAAGUCAACAGAUCUUCUGUUGAUAUGGAUGCAGUUCACAGACUAAAUGUCGGUCGGGGAAGAUGUAUUCUUCUCAUAAGAUAUAGUCGGACCUCUCCUUAAUGGGAGCUAGCGGAUGAAGUGAUGCAACACUGGAGCCGCUGGGAACUAAUUUGUAUGCGAAAGUAUAUUGAUUAGUUUUGGAGUACUCGUGGUCG
How it was run: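 A randomised library covering all eight P1ex-region intron nucleotides was built with the intron in the knt kanamycin-resistance gene on pET-22b(+) and held in E. coli BL21(DE3). Cells were grown overnight at 37°C or 30°C on LB agar, with or without 25 μg/mL kanamycin, plus 100 μg/mL carbenicillin, 50 μM IPTG and 0.2% rhamnose, and pooled colonies were amplicon-sequenced on an Illumina HiSeq 2500. DiMSum fitness is the error-weighted combination of wild-type-normalised replicate fold changes, kanamycin versus none.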

Row | Sequence | self-splicing fitness (ln) (30 °C) | self-splicing fitness (ln) (37 °C)
1 | UCUAAGCAAUAUUACGAGGC | -2.85 ± 0.31 | -2.58 ± 0.38
2 | UCUAAGCAAUAUUACGAUAC | -2.38 ± 0.25 | -2.95 ± 0.47
3 | UCUAAGCAAUAUUACGAUUA | -2.61 ± 0.33 | -1.94 ± 0.34
4 | UCUAAGCAAUAUUACGCAAG | -2.85 ± 0.4 | -1.86 ± 0.34
5 | UCUAAGCAAUAUUACGCACA | -2.26 ± 0.39 | -0.556 ± 0.47
6 | UCUAAGCAAUAUUACGCAGU | -1.86 ± 0.16 | -1.24 ± 0.15
7 | UCUAAGCAAUAUUACGCCCU | -2.09 ± 0.24 | -1.78 ± 0.25
8 | UCUAAGCAAUAUUACGCCGA | -1.12 ± 0.19 | -0.156 ± 0.2
9 | UCUAAGCAAUAUUACGCGGC |  | -1.59 ± 0.36
10 | UCUAAGCAAUAUUACGCUGU | -2.47 ± 0.18 | -2.59 ± 0.21
11 | UCUAAGCAAUAUUACGCUUA | -2.29 ± 0.21 | -1.75 ± 0.29
12 | UCUAAGCAAUAUUACGGACG | -3.16 ± 0.22 | -1.95 ± 0.28
13 | UCUAAGCAAUAUUACGGAUA | -2.97 ± 0.22 | -1.77 ± 0.19
14 | UCUAAGCAAUAUUACGGGCA | -1.42 ± 0.12 | -0.441 ± 0.12
15 | UCUAAGCAAUAUUACGGGUG | -1.54 ± 0.076 | -0.964 ± 0.099
16 | UCUAAGCAAUAUUACGUCGG | 0.0423 ± 0.067 | 0.627 ± 0.078
17 | UCUAAGCAAUAUUACGUGGC | -3.09 ± 0.19 | -3.11 ± 0.34
18 | UCUAAGCAAUAUUACGUUAG | -2.19 ± 0.1 | -1.04 ± 0.1
19 | UCUCAGCAAUAUUACGACAA | -1.98 ± 0.25 | -1.31 ± 0.27

Row | Sequence | self-splicing fitness (ln) (30 °C) | self-splicing fitness (ln) (37 °C)
20 | UCUCAGCAAUAUUACGAGAG | -2.76 ± 0.11 | -1.46 ± 0.11
21 | UCUCAGCAAUAUUACGAGUG | -0.746 ± 0.068 | 0.292 ± 0.086
22 | UCUCAGCAAUAUUACGAUAA | -2.15 ± 0.21 | -1.33 ± 0.21
23 | UCUCAGCAAUAUUACGAUAU | -2.12 ± 0.14 | -1.75 ± 0.18
24 | UCUCAGCAAUAUUACGAUCC |  | -1.66 ± 0.37
25 | UCUCAGCAAUAUUACGAUGG | -0.935 ± 0.11 | -1 ± 0.14
26 | UCUCAGCAAUAUUACGCACG | -2.2 ± 0.2 | -2.06 ± 0.28
27 | UCUCAGCAAUAUUACGCACU | -0.801 ± 0.13 | -0.465 ± 0.14
28 | UCUCAGCAAUAUUACGCCAG | -1.94 ± 0.25 | -1.2 ± 0.34
29 | UCUCAGCAAUAUUACGCCCA | -0.778 ± 0.12 | -1.88 ± 0.18
30 | UCUCAGCAAUAUUACGCGCU |  | -3.12 ± 0.43
31 | UCUCAGCAAUAUUACGCGGG | -1.7 ± 0.14 | -1.4 ± 0.15
32 | UCUCAGCAAUAUUACGCGUG | -4.26 ± 0.24 | -3.11 ± 0.21
33 | UCUCAGCAAUAUUACGCUAU | -3.62 ± 0.43 | -2.37 ± 0.23
34 | UCUCAGCAAUAUUACGCUCG | -3.93 ± 0.25 | -2 ± 0.19
35 | UCUCAGCAAUAUUACGCUGG | -3.25 ± 0.2 | -2.67 ± 0.2
36 | UCUCAGCAAUAUUACGGAAA | -1.45 ± 0.14 | -0.892 ± 0.14
37 | UCUCAGCAAUAUUACGGACA | -0.71 ± 0.099 | -0.369 ± 0.1
38 | UCUCAGCAAUAUUACGGAUG | -2.78 ± 0.12 | -0.753 ± 0.13
